Legend:
[1] = molecular target: T1, human chemokine receptor CXCR4 fused to the N-terminus of GFP or TagRFP (human), P61073; experiment: FRET or BRET; details: remark: other sources report otherwise
T1 chain: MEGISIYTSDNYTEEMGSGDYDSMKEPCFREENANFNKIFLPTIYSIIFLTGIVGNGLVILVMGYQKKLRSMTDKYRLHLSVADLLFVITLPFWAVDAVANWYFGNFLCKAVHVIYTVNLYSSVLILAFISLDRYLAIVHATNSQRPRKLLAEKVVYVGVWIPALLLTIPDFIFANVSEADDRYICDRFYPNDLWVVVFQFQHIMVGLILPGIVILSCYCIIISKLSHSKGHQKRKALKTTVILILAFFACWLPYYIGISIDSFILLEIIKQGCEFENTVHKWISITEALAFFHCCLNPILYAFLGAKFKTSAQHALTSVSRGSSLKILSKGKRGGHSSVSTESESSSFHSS

[2] = molecular target: T1, human chemokine receptor CXCR4 fused to …; experiment: FRET or BRET; details: remark: other sources report otherwise

B1: human chemokine receptor CXCR4 fused to the N-terminus of GFP or TagRFP, P61073 1-352 (receptor)
chain: MEGISIYTSDNYTEEMGSGDYDSMKEPCFREENANFNKIFLPTIYSIIFLTGIVGNGLVILVMGYQKKLRSMTDKYRLHLSVADLLFVITLPFWAVDAVANWYFGNFLCKAVHVIYTVNLYSSVLILAFISLDRYLAIVHATNSQRPRKLLAEKVVYVGVWIPALLLTIPDFIFANVSEADDRYICDRFYPNDLWVVVFQFQHIMVGLILPGIVILSCYCIIISKLSHSKGHQKRKALKTTVILILAFFACWLPYYIGISIDSFILLEIIKQGCEFENTVHKWISITEALAFFHCCLNPILYAFLGAKFKTSAQHALTSVSRGSSLKILSKGKRGGHSSVSTESESSSFHSS
B1 was tested, and the FRET efficiency [1] was 10.4% and the FRET efficiency [2] was 10.9%.

Reference: publication PMC3408954
